What was measured:
MDM2 [1] = biological target: T1, MDM2 (Homo sapiens, UniProt Q00987 Q00987:1-491); test: pulldown; NCL present; iSN04 blocks NCL-MDM2 interaction; conditions: tags: R&D Systems E3-202-050; label: 5'-biotin; weak G4 only with K+
Protocol: (§1) 6 μg/mL recombinant human NCL and 6 μg/mL recombinant human MDM2 were mixed well and incubated at 4° C. for 7 h. Subsequently, 400 nM CRO, AS1411, or iSN04 labeled by biotin at the 5′ end was added, and the mixture was incubated at 4° C. for 6 h. Streptavidin agarose gel beads (purchased from cytiva, Cat. No.: 17511301) were added, and the mixture was further incubated at 4° C. overnight. The gel beads were washed 4 times with a TBST buffer, and an SDS-PAGE protein loading buffer (purchased from Beyotime, Cat. No.: P0015) was added. The mixture was heated to 100° C. and held for 10 min. After centrifugation, the supernatant was collected. The pull-down product was then detected by western blot assay.

Nucleolin (NCL) = Nucleolin (NCL) (Homo sapiens, UniProt P19338 P19338:2-710); test: pulldown; 400 nM oligo, with MDM2, 4 C; conditions: tags: ACROBiosystems NUL-H5253, label: 5'-biotin
Chain of Nucleolin (NCL) (P19338 2-710, one chain of several): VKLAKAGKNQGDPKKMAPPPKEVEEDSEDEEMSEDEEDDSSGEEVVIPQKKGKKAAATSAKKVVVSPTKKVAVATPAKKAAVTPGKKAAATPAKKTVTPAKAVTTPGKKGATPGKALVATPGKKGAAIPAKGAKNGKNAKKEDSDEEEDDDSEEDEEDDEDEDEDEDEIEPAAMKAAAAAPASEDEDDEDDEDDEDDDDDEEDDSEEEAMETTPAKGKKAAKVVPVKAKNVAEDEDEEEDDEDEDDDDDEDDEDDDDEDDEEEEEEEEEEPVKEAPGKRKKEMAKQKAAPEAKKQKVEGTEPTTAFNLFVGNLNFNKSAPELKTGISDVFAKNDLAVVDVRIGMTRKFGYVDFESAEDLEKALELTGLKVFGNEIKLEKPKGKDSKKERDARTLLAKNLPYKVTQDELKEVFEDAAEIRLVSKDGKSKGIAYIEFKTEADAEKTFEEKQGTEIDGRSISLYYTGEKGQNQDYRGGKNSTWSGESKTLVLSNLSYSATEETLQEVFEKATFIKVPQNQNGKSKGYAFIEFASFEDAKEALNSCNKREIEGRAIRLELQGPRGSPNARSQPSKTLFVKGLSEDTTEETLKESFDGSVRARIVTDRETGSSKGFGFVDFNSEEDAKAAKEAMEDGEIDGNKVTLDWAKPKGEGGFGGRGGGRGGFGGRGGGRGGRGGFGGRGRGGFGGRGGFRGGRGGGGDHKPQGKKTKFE
Protocol: as §1

MDM2 [2] = biological target: T1, MDM2; test: pulldown; NCL present; conditions: tags: R&D Systems E3-202-050; label: 5'-biotin
Protocol: as §1

T1 sequence (Q00987 whole entry, one chain of several): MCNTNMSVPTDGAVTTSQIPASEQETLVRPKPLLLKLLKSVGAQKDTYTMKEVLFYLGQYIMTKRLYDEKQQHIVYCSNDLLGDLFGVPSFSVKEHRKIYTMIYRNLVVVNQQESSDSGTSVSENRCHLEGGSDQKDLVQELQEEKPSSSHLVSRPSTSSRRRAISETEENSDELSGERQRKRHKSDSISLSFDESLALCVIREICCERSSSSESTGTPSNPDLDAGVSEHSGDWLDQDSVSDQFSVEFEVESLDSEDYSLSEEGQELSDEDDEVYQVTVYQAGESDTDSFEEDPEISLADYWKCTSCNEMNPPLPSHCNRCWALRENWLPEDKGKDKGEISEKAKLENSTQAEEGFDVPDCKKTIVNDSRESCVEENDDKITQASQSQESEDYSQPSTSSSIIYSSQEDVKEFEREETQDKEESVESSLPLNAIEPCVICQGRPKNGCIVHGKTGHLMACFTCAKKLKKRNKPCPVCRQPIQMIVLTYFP

Row | Binder | binding result (MDM2 [1]) | binding result (Nucleolin (NCL); weak G4 only with K+) | binding result (MDM2 [2]) | binding result (Nucleolin (NCL))
1 | AGATTAGGGTGAGGGTGA (ssDNA) [iSN04] | no binding | binds |  | 
2 | CCTCCTCCTCCTTCTCCTCCTCCTCC (ssDNA) [CRO] |  |  | no binding | no binding

From US20260256923, “NEW RECRUITMENT ELEMENT OF UBIQUITIN LIGASE AND USE THEREOF” (SHENZHEN LINGGENE BIOTECH CO., LTD., published 2026)
